Experimental data reported in IntAct's records for PubMed 22587461.

B1: Translocated intimin receptor Tir (Escherichia coli O127:H6 (strain E2348/69 / EPEC)), B7UM99 (parent)
chain: MPIGNLGNNVNGNHLIPPAPPLPSQTDGAARGGTGHLISSTGALGSRSLFSPLRNSMADSVDSRDIPGLPTNPSRLAAATSETCLLGGFEVLHDKGPLDILNTQIGPSAFRVEVQADGTHAAIGEKNGLEVSVTLSPQEWSSLQSIDTEGKNRFVFTGGRGGSGHPMVTVASDIAEARTKILAKLDPDNHGGRQPKDVDTRSVGVGSASGIDDGVVSETHTSTTNSSVRSDPKFWVSVGAIAAGLAGLAATGIAQALALTPEPDDPTTTDPDQAANAAESATKDQLTQEAFKNPENQKVNIDANGNAIPSGELKDDIVEQIAQQAKEAGEVARQQAVESNAQAQQRYEDQHARRQEELQLSSGIGYGLSSALIVAGGIGAGVTTALHRRNQPAEQTTTTTTHTVVQQQTGGNTPAQGGTDATRAEDASLNRRDSQGSVASTHWSDSSSEVVNPYAEVGGARNSLSAHQPEEHIYDEVAADPGYSVIQNFSGSGPVTGRLIGTPGQGIQSTYALLANSGGLRLGMGGLTSGGESAVSSVNAAPTPGPVRFV

Variants of: B1
Conditions: with anxa2_human ANXA2, P07355
Chain of anxa2_human ANXA2, P07355 (P07355 whole entry): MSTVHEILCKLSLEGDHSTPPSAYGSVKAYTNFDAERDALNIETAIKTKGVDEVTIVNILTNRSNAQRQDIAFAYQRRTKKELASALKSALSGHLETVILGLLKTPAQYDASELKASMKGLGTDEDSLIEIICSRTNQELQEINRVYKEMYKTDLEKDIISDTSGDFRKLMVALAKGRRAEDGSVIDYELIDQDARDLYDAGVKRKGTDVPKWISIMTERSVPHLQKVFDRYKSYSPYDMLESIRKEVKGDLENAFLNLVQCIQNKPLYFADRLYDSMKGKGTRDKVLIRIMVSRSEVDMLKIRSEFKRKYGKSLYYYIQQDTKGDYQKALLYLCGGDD

| Variant | effect of a mutation on the interaction |
| --- | --- |
| Y474S | with no effect |
